# Experimental data from the DeepSol protein solubility set.
# Test: soluble on expression in E. coli; label from the status in PepcDB or PDB records
row,Sequence,soluble on expression in E. coli
1,MGSDKIHHHHHHMIEKVEEKSKIIKTSKEYKRTIIEEKDKEWTKKLNDILSRSSFSNDELDKIKALIPKEILTNENVGEVVTEDGYAKPEYDEVFKSLFTLNNEYDLLVNFINDILKDAPYANRNIKPFTQIKRIIRVETDPTINYIGEKRPRLDILAEDEENNHINIEMQRAFENDYLERAEYYLSRVHGRKLEEGKEYKEIGKTIGIHILNHVKYNHIEDYVNCLRLTMDGHPDIYSSKTALYFIELPKIHKSDYIVNRIMLWGKLISNPSNLDVRVIAKNDSIIKKALDRLKELGSNEEYLLNLKRGAYIMNKSRNFKEEIERETAIRVAKEKDYKIIIMLKKNGFKLDDILNKFNDFDLSEDEIKEVYENN,not soluble
2,MSTGGFQKDQAINILLIGTDKRTGSGNDGYGDKGSAGHADTTLLLHVSKDRSNATALSIPRDLIVDVPDCPTTQEDGSTKVIPGSTGVRFNTSLGQSGRTPSCTMRTVTELTGVTPDNFMVADFNAVKTLSSAVGGVEVCLAKDIDDPDSHLNLPAGKHTVEGEEALAFVRTRHSVGFGGDLSRIELQQQFLSSLMRKLKSNDTLTSPTKMVKLAEAGTDALTVDAKLKSIGKLKDLGLELGKLDTKNLTFATVPVKDNPAEKTPVTVVLKDGPAQQVFDMVKNDVSFTEVKKQEKEKKDKEEAAVAARLEGKKSEPSEVRVRVLNGGASSGSAGRELTYLQNEAGVTKSENAGNAPADIAKTTLEYAPDQADQARALAEILGLTGAAMKPGESVTNSQGLPAMTLTLGKDFKGAGVKLDATSAKAPEDLQKSTADKVECAKLEHHHHHH,soluble
3,MDKIHAMQLFIRVADLESFSRAAETLALPKGSVSRQIQALESHLGVRLLHRTTRRVQLTQDGMVYYERAKDLLSNLDELDGMFQHDPASISGRLRVDMPVGFAKKMVIPHLPTFLQQYPGIELELSSSDRQVDVIREGFDCVVRVGALKDSGLIARPLGKLTQINCASPDYLARFGYPQSLEDLADHALIHYASTLGVRPPGFEVMIDGAVRWVKTGGILTVNSTETYQAACIAGLGIIQVPRTGVREALRAGDLIEILPQYRAEPLPVSLIYPHRRNLSRRVNLFMEWLGGLMKAYVD,not soluble
4,SLYAISISERTLEKVNAIIESEIKPNAYLASGDLLVHTSRLFMDTPYQANTLVHHSDLPYALVVNFDGMDCFTYLDYVVALSQASDTPSFFSSLMNIRYKKSHIHFYDRKHFFSDWYALSPQIAIDITEKMSPDAITIPKQLNQKVEGGEYIQGLGVIPRMITYIPSDKITQSVLDNLQNGDLVGVYSPKIGLDVTHTGIIVKENNQILYRNASSLSKYNKVVDLPFMDYIRSKPGIVVLRVE,soluble
5,MGSDKIHHHHHHMTETLLVTGAAGQLGRGVIRYLMDTHKVPPAKIIATTRNPENVADLAARGVVVRAADFNDATSLENAFKGADRVLIISTSDLDLKTGRRLKQHEAAVAAAKKAGVSHLLYTSMPNPEPVSPVLFAGDHYGTEQAIKASGIAYTIFRNGWYQENLFIALPHAIASGQWYTSAGDGRIAHGSRDDMAAAIAAGLASGSTDSKTYTLTGPQAYTTAEIAALVSEVTGKPLEVIQLPDEALTEGVKAAGVPEEFARVIVSFDANTRSGRIAMATDAVETLSGRKPRTLKQFLEANKAALAG,not soluble
6,SADIYIMGHRYPDMDALGSAFGVARLASFNNRKAWIVLDENEIIPDVKRVLEAIKEYPELEERIISPKEAMKRKKESSLLVMVDYHKPSLSISQELYERFDKVVIIDHHRRGDEFPAKPLLSYIESSASSASELVTELIEYQSNSANKLQAFEATMMLAGIVVDTKSFNTRTTARTFDVASYLRTCGADSSLVQYLLSSDL,not soluble
7,MSLYLCEEHFKEYFERKVARTIEKYKLASKDERILVAVSGGKDSAVTAYVLKKLGYKIECLHLNLGIGEYSEKSEIYAKKQCEFIGAPLNIIRVKELLGYGIGEVRTSRPTCSYCGLTKRYIMNKFAYDNGFDAVATGHNLDDEASFLMNNLLHWNTEYLAKGGPLLPGEGKFVKKIKPLYELTEREVVAYAIAVGLEYIVEECPYARGATTLDMKEVLNELEEKRPGTKFNFVRGFLRKKKLFEPEVKGKDLKECKICGMPASGEICSFCKFWKLGKPLTFKIKEGHHHHHH,soluble
8,MGSDKIHHHHHHLGGGGIRPSHLLADEGGGPPYRPPAGRPVPSVPALMKLNAIEAGSAAADRVPLLILHGLLGSARNWGAVVKALGESRRVLALDLPNHGSSPWTEIMDYPFMARELASVIEHLGGRAAIMGHSMGGKAAMTLALSRPELVERLVVVDIAPVSYSHTFAPYIKAMRGVPLGEVSSRGEVEAALAGAIPDKGVRAFLMQNLEGGAGGYRWRPNLAVLGAHMDDILAFPHFPDDTAFQGPTLFVAGETSDYIRPAHEDVIAQFFPKAESVEIPGAGHWVHADNPSAFMSAIGSFL,not soluble
9,MIMDLASLRAQQIELASSVIREDRLDKDPPDLIAGADVGFEQGGEVTRAAMVLLKYPSLELVEYKVARIATTMPYIPGFLSFREYPALLAAWEMLSQKPDLVFVDGHGISHPRRLGVASHFGLLVDVPTIGVAKKRLCGKFEPLSSEPGALAPLMDKGEQLAWVWRSKARCNPLFIATGHRVSVDSALAWVQRCMKGYRLPEPTRWADAVASERPAFVRYTANQPLEHHHHHH,soluble
10,MGSDKIHHHHHHMHNVDQQELSKFEQMAHSWWDPNGSFKPIHLLNPLRFNYIQTKANGLFGKKVLDVGCGGGILSEAMAQAGAIVTGIDMTTEPLEIAKQHAIENGLTIHYQQTTVEDLRLNHTACNAEKFDVVTCMEMLEHVPDPLSVIQSCKALLKPDGVLFLSTINRTLKAYMLVVIGAEYLLKMLPKGTHEFEKFIKPAELLTWCDQASLECKEMKGYHFNPLTEKFWLNNDVSCNYIAMLKAK,not soluble
11,MGSDKIHHHHHHMAKKKVIFECMACGYQSPKWMGKCPNCGAWNQMEEIVEKAANPKHGVKTKELAGKVQKLNSIKHETTPRVLTDSAEFNRVLGGGIVSGSLVLIGGDPGIGKSTLLLQICASLSQKKKVLYITGEESLSQTKLRAERLDEDSSELQVLAETDLEVIYQTVKEEQPDLLVVDSIQTIYHPEISSAPGSVSQVRESTQSLMNIAKQMNIATFIVGHVTKEGQIAGPRLLEHMVDTVLYFEGDEHHAYRILRAVKNRFGSTNEMGIFEMKQSGLKGVNNPSEMFLEERSTNVPGSTIVATMEGTRPLLIEVQALVTPTTFNNPRRMATGIDHNRLSLLMAVLEKKENYLLQQQDAYIKVAGGVKLTEPAVDLSVIVATASSFKDKAVDGLDCYIGEVGLTGEVRRVSRIEQRVQEAAKLGFKRVIIPKNNIGGWTYPEGIQVIGVTTVHEALSFALHS,not soluble
12,MAILYSKMKRSVTIKLQPSKEQEKILFELADVGAKVWNRVNYLRRQEFFEGKLVDFNRTEKIVYEEFKQETGSATVQQIARKNAEAWRSFFTNCPSGSSQNHQTTLEHHHHHH,not soluble
13,MARLIVNALVSVPLAEIEIGFVRSGGAGGQNVNKLATAAHLRFDIAASSLPETCKTRLLDHRDRRMTAEGIIVIKAQRFGTQEKNREDALARLRGLILQALAQRRPRKPTRPTLAAKKKRLDEKTRHGEIKRLRRRIGDLEHHHHHH,not soluble
14,MSLTIYVYVLDTLADWEIGYVNSELNSRRFFKKDANRVSLKTVSYSKEPIKTMGGMTIVPDCVIDDIVMSETSVLLLPGADTWNNLEHKAIIKKASELLALNATVAAICGATVALANHGLLDNRPHTSNGAGFLEMFSSSYKGQNSYINELSVWDNNLITASSAGALLWAKQIIAHLDVFESNTLESWYAYFNTGDPKHFYALMESLPDNNEGHHHHHH,soluble
15,MALTVSLLDKLIDSDPTTREEKDFPVSQQHMLNGLLRDLESMLNSRIGWKNIHEDFLEVRYSILNYGLPDFSSMPYSSQDGQSQLCDIVYEAIREFEPRLRNPHVQISDEKNAIDRTLRLEISATCLIDNDIHELRFNSEVEPVNLGMKLSRAK,not soluble
16,MLGVRMSGSVLDEEAEKLMDYDYLLEKLYKKVPPKSGTSEYRIPEPQIIRIGSQTVIRNFREIAQALKRDPKLVARYLQKELATAASYEEESGQLILNVKVSRKVVNQFLQLFMKTYVRCPTCGSIDTKLLRQERAYMLKCEACGAEQPVKPI,soluble
17,MTSKIALFDQTLIASLLQPLSLNQPDFKAYKTKVKLKISEQRNETSGEKELKFEISRSDDFEFLFSETLNNEKYQILARDHDLTVDFDAFPKVIIQHLLCKNIVKNLEEDGEVDARKKAGYHSIADPGKPTEINIILDAEKNFCSFELFSKTPISKGKIFSIKLHAVRGDHLISHLLKICSSQAVKLSTFYKSADELASLRQKCGDLEKQVEKLSGVKEEFEEMSEKFKELEDEVELVKEERENIRLLVEDKEDEVADLKQDTESLQKQLEENQEELEIVGNMLREEQGKVDQLQKRNVAHQKEIGKLRAELGTAQRNLEKADQLLKRNSQQQNQQSLDMRKLGELEADLKEKDSMVESLTETIGILRKELENEKLKAAENMDSFEKLSMENENLKEKIAHYRAQRFSPAPSGLPGLQTGLTNRLTPSFKPVLGPHTPYGANLNSRTPFRDNTTLNFQNSTIATPHAFRFNSQLIADETTGSSVTNTPPAQR,not soluble
18,MGHHKAMPYADVAAFIIELRKREAVAATALEFTILTAARSGETLGAKWHEIDWKDKIWTVPAERMKAAREHRVPLSSRTITILKKLAEFGSDENSFVFPGQKPGKPLSVMAMDMVLRRMEVDVTVHGFRSSFRDWCGEVSNFPRDVAEAALAHLEHHHHHH,soluble
19,MAHHHHHHMGKLCWLQISIGGKPAKEKILLELFDDITPKTCANFRALCTGNEGKVTDETQIPMTYKGSTFHRIIAGFMIQGGDFTKHNGTGGVSIYGERFDDENFDVPCDKAGLLAMANAGPNTNGSQFFITVNPAQHLTGRHVVFGKVVRGMNTVRALEHTETGANDKPVKPCVIVDCGVTDTLPEPEPQVGGDTFPDYPEDCTPSLTDAELLDVGEEIRQIGNKLFKASDFENAIQKYEKAARFVKTINKTTANDVAVNEKLIACYNNTAACAIKLGQWSEARNAASRVLELDNSNAKALFRRGFASLSAGDSESAVADFTKAQKLDPDNTEIVTVLQQAKEAEKVRTAKLAAGLKKMFS,not soluble
20,MVAASKEFVFHHTFKDVSQLEDGDFFKSPEEIHYNAEWFILVIRTKDQLEAYLHCDNEKDDNVAWTVDAEFSLKIASSSGSYAMKFQKGCFDGFGLGWNDFVSWDSLTEDFLYDNSFTIEACVKITKMTGFSKDVLRSFDESEKRFSDVILVVGDEKFYVLKLFLASHSSYFNALFLGKFKEADQSEVTLQNIDPTDFQSLLEVLYGEPAIDDGTIDGVLLLAHMLDVTLAIRKCEEFLIEKSMKSMRELLKMANQYQLENLKVKFYFLKIPEN,not soluble
21,MGSDKIHHHHHHMDAILMSLMTALNEHLLINVYQRDTDDFYTGYVQVLGHDAVVLGTYNDSGIADGCALIAFSAIDQVEFAGDDLDSMNFRINLAQAQHFLTLQGQEKPLQFDATQNLIQQLATQAKANGQMVMVVVADDDAYLEGQVTAVAEDRFSMAIFNKFNYTDVRALQVDFSDILVMEFHGLDLKLETELVWQRDHLKHVATKLYQNDGQLAGVFQNALANNRLISVVPKGPEDQFFVGRVKAVNDRVVVLSLKDMAGQFGGYILLTLPSIQNVATASDYLQTISFYEKWDQTHHFSQQPVLNADREFDPNDDLIRTIISEAAGFERVVRIKVADSDEHFLGYPENVGETDFDLNLVGPDDGETAQIRYGQIREIAFGHIFAYLQEAQLKNAGR,not soluble
22,MKKLINKKETFLTDMLEGLLIAHPELDLIANTVIVKKAKKEHGVAIVSGGGSGHEPAHAGFVAEGMLDAAVCGEVFTSPTPDKILEAIKAVDTGDGVLLVVKNYAGDVMNFEMAQELAEMEGINVQTVIVRDDIAVTNEVQRRGVAGTVFVHKLAGYLAEKGYSLTEIKSRVEALLPEIKSIGMAIEPPLVPTTGKYGFDIEDDKMEIGIGIHGEKGIHREEVKDIDHIVGTLLDELYKEVTANDVILMVNGMGGTPLSELNIVTKYIQQNLAARTVNVAKWFVGDYMTSLDMQGFSITIVPNKPEYLEAFLAPTTSQYFKLEHHHHHH,soluble
